Here are results for one molecule from paper PMC8519809 (Cell Reports, 2021).

The assay deals with SARS-CoV-1 S-2P protein (SARS-CoV-1 (human SARS coronavirus); …, stabilised). In words: SPR. (In general: SPR reads the build-up and loss of mass on a sensor chip optically.)

B1: Fab22 (Fab, V domains shown)
VH: EVQLQQPGPVLVKPGASVRMSCKASGYRITDNFMNWVKQSHGKSLEWIGIINPYNGGTKYNQKFKGKATLTVDTSSSTAYMELNSLTSEDSAVYYCTRVRGNDYHGRAMDYWGQGTSVTVSS
VL: DVVLTQTPLSLPVNIGDQASISCKSTKSLLNRDGFTFLDWYLQKPGQSPQLLIYLVSNRFSGVPDRFSGSGSGTDFTLKISRVEAEDLGVYYCFQSNYLFTFGSGTKLEIK
Turning to B1, the affinity, expressed as Kd, was 7.2 nM.
